# According to patent publication US20160096866A1 (University of Pennsylvania, published 2016):
# Read-outs that look alike come from different tables or passages of the source. Bridges are numbered along the chain shown (N, C = ends). [ ]: non-standard residue; d: D form. Trp(1-Me) = Cn1cc(C[C@H](N)C(=O)O)c2ccccc21; 2Nal = N[C@@H](Cc1ccc2ccccc2c1)C(=O)O
# Experiments:
# complement component C3 [1] = biological target: T1, complement component C3 (human, UniProt P01024 23-1663, limits assumed); assay: cell-based or functional assay
# complement component C3 [2] = biological target: T1, complement component C3; assay: cell-based or functional assay; remark: listed apart in the source
# complement component C3 [3] = biological target: T1, complement component C3; assay: cell-based or functional assay; remark: listed apart in the source
# complement component C3 [4] = biological target: T1, complement component C3; assay: ITC; relative to the row 'Wild-type'
# Description: Isothermal titration calorimetry experiments were performed using the Microcal VP-ITC calorimeter (Microcal Inc, Northampton, Mass.). Protein concentrations of 3.5-5 μM and peptide concentrations of 80-200 μM were used for these experiments. All titrations were performed in PBS (10 mM phosphate buffer with 150 mM NaCl, pH 7.4). In each experiment, the target protein, C3, was loaded into the cell, and peptide was loaded into the syringe. All experiments were performed at 25° C. and for each experiment, 2-μl peptide injections were made into the cell containing the protein. In each experiment, the raw isotherms were corrected for the heats of dilution by subtracting the isotherms representing peptide injections into the buffer. The resulting isotherms were fit to various models within the Origin 7.0 software, and the model that achieved the lowest chi square value was deemed to be appropriate for the respective dataset. Binding affinity and entropy values were plotted against log P values.
# The calorimetric data obtained for the interaction of all the peptides with C3 fit to a one set of sites model with stoichiometry close to 1 (FIG. 4). […] As per the correlation, binding affinity increases with an increase in the hydrophobicity of the analog incorporated at position 4. This observation is consistent with the correlation shown between log P and the inhibitory constants.
# T1 sequence (P01024 23-1663 limits assumed): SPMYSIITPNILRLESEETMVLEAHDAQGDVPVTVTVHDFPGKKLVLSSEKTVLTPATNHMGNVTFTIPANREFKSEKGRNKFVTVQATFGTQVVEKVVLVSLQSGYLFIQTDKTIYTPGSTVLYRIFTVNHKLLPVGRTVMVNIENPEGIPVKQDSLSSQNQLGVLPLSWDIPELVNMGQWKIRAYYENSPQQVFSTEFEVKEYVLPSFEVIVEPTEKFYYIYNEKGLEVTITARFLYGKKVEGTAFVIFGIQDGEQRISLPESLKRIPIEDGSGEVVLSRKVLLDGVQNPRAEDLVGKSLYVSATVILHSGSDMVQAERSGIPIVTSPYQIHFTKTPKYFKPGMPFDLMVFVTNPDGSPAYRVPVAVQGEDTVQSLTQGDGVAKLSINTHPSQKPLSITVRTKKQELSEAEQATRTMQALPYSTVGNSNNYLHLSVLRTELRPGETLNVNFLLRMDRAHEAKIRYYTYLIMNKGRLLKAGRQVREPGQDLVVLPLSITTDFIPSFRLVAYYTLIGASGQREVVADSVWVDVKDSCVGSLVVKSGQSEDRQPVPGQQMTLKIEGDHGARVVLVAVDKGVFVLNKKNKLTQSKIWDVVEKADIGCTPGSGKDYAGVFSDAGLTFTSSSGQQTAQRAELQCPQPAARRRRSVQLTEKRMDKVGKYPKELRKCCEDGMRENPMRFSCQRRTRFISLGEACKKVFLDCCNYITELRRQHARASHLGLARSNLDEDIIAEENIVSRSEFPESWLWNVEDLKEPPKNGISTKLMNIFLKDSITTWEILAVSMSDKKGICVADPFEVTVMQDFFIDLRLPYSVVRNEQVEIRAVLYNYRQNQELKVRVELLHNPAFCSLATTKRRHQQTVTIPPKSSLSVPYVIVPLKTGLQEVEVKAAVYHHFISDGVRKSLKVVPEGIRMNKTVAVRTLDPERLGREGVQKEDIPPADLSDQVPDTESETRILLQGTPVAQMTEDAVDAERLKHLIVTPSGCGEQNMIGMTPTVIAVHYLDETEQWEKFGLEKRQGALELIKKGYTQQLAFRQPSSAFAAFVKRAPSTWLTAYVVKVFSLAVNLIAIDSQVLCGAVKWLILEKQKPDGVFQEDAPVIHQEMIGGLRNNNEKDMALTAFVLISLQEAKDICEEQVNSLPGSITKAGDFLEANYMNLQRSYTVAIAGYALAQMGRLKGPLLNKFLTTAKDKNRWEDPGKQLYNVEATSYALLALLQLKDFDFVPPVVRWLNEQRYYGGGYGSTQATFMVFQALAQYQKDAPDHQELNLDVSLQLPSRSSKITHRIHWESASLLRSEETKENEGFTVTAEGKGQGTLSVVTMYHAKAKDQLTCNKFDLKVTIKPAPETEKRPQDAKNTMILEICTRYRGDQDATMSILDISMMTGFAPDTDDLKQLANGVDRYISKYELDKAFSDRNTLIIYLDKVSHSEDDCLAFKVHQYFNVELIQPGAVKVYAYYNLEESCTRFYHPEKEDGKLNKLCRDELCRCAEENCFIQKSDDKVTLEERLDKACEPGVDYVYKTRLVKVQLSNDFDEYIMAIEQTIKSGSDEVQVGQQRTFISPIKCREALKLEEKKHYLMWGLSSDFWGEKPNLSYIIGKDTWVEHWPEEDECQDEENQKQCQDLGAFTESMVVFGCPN
Molecule,"IC50, complement inhibition (C3b/iC3b deposition ELISA, human plasma) (complement component C3 [1]) [µM]","Relative activity (to compstatin, SEQ ID NO: 1) (complement component C3 [1]) [fold]",Activity over compstatin (complement component C3 [1]) [fold],other results
Ac-V4W/7(5-methoxy W)/H9A (peptide),0.46,0.5,,
G(-1)/V4(5-OH-W)/W7(5-OH-W)/H9A/N14 (peptide),33,1.6,,loss of complement inhibitory activity relative to Ac-V4W/H9A (complement component C3 [1]): 27.5 fold
G(-1)/V4(7-aza-W)/W7(7-aza-W)/H9A/N14 (peptide),122,0.44,,
G(-1)/V4W/H9A/N14 (peptide),1.2,45,45,
ICVWQDWGAHRCTK (N-terminal acetyl; 1-methyltryptophan at position 4; lysine added at the C-terminus with PEG 5000 linked to its side chain) [Ac-V4(1-methyl-W)/H9A-K-PEG 5000],,,,amount needed for the same complement inhibition as Ac-V4(1-methyl-W)/H9A (complement component C3 [2]): 7 fold
"Ac-ICV[2Nal]QDWGAHRCT-NH2 (disulfide 2-12; SMILES CC[C@H](C)[C@H](NC(C)=O)C(=O)N[C@H]1CSSC[C@@H](C(=O)N[C@H](C(N)=O)[C@@H](C)O)NC(=O)[C@H](CCCNC(=N)N)NC(=O)[C@H](Cc2c[nH]cn2)NC(=O)[C@H](C)NC(=O)CNC(=O)[C@H](Cc2c[nH]c3ccccc23)NC(=O)[C@H](CC(=O)O)NC(=O)[C@H](CCC(N)=O)NC(=O)[C@H](Cc2ccc3ccccc3c2)NC(=O)[C@H](C(C)C)NC1=O, also called Ac-V4(2-Nal)/W7/H9A) [Ac-V4(2-Nal)/H9A]",,,,"IC50, complement inhibition (C3b/iC3b deposition ELISA, human plasma) (complement component C3 [3]): 0.545 µM; -TΔΔS (complement component C3 [4]): -16.7 kJ/mol; ΔΔG (complement component C3 [4]): -0.418 kJ/mol; ΔΔH (complement component C3 [4]): 16.2 kJ/mol"
"Ac-ICV[Trp(1-Me)]QDWGAHRCTRLIEDICLPRWGCLWEDD-NH2 (disulfide 2-12, 20-26) [4(1MeW)-ABP]",,,,amount needed for the same complement inhibition as Ac-V4(1-methyl-W)/H9A (complement component C3 [2]): 7 fold

# The next lines start with results.
"IC50, complement inhibition (C3b/iC3b deposition ELISA, human plasma) (complement component C3 [1]) [µM]","Relative activity (to compstatin, SEQ ID NO: 1) (complement component C3 [1]) [fold]",Activity over compstatin (complement component C3 [1]) [fold],Molecule,other results
0.48,112,112,G(-1)/V4(5fW)/W7(5fW)/H9A/N14 (peptide),complement inhibitory activity relative to Ac-V4W/H9A (complement component C3 [1]): 2.5 fold
0.43,126,126,G(-1)/V4(6fW)/W7(6fW)/H9A/N14 (peptide),complement inhibitory activity relative to Ac-V4W/H9A (complement component C3 [1]): 2.8 fold
